# Results published in the DeepSol protein solubility set.
# Assay: soluble on expression in E. coli; label from the status in PepcDB or PDB records
row,Sequence,soluble on expression in E. coli
1,MRVLLVTGKLAEEMVRKYGKGADVKVYNIDIAAFITPSMLENEDFSGYDLVLVPGLTYSHNWEDFERRKGVKVRLGPIHAYDLQHVLKLIGKVEFSHKIPACRLVESLRAEETLREIDALDEDCAFEIGGVKVGGSSRMKVVAEIASFCDFDDLRAKIDHYTESGADIIDIGVPLEFDKEWLHKTLKIAVDHSKLPLSIDTFSSKAIEIAVKHGVDMVMSISMDNLKALDLIENQAVVVVERDIDGLLNLVERVGEKVERVIADPILDPPLKVAESIGRYAEFRRRDEKTPLLFGAGNVTELSDADSIGINALLAFIAEELKCNLLFTTEASPKTFGSVRELNIASYLAKAAKIRNSPPKDAGVSLLALKEKVRYEERVELDDFVRAEETREFVRDPLGDFIIQVVDGKIVCKHDRMTIVGEKAKEVADTAIKNNLLSRLDHAAYLGRELMKAEIAALLKKSYIQDRELNFGFYQK,not soluble
2,MGSDKIHHHHHHMVMIQLCEWQQQGQFLSINDQQIFTRQAGDRKAPALLLIHGYPSASWDWEGMWHELTQHYFVVTLDMLGFGFSDKPKNVDYLISQQADIYEAVLQQFGVSHYHILAHDYGDTVAQELLARQLDGNSTLSINSVCFLNGGLFPETHKPLLIQTLLLSPLGPLVSKLINKQKFAVNLQRIFGPSTPPTPQVIDALWQLLNHNNGLAVMHKLINYITQRKQHRERWVGAIINSTIPIKLIAGVKDPISGQHMIDHYRKLIPHADVTELPTLGHYPQVEDANAIIAAYLQFRLNRT,not soluble
3,MGSDKIHHHHHHMSEIETIQAYYAASLGKDGRITRTQRQILAAALDLFAEKGYEEVGTREIAERAGVAEGTLFHNFVNKNGILDAIMQPIVQNILPTMLNTLDQAVLDSPNQTLQAFVVALVRDRVAFVTRNRASLAVILSQFFNNAQDRAAVLGMVSPSILAQANEAMDRLKAARELVDWPNRMILQLVFSTIGGYLVEQVLYPQLDDLSDEQLIHYLSDFLVNGLSPRRIPLQDDNTAS,not soluble
4,SAADLGQIPDVDIDSDGVFKYVLIRVHLAEPSGDPAKECKEIVRGYKWAEYHADIYDKVSGELQRNGYDCECLGGGRISHQSQDRKIHVYGYSMGYGRAQHSVSTEKIKAKYPDYEVTWADDGY,soluble
5,FKDFRLGINLNGVYAKNKILFWDEAPGTPEWQKSTGKPIDSGLYYEAIGIFKDQAAVDAYPHWAGARPGDIIFKDVNGDNVIDGNDRVRNDKSRTPRFTGGLNVDLGYKDFDLSFLLQGAMGGVFYQTTESGDFANFLKSFYDNRWTEENPDADFPRTYNRSNEYFINQQNTFWLHKTDYIRLKNIELGYTVPSIWSKKIGVEHLRVYINAYNLLTISPDMKDYDPENTSGSGYNYPLNKVINFGVNLTF,not soluble
6,MLIAFEGIDGSGKTTQAKKLYEYLKQKGYFVSLYREPGGTKVGEVLREILLTEELDERTELLLFEASRSKLIEEKIIPDLKRDKVVILDRFVLSTIAYQGYGKGLDVEFIKNLNEFATRGVKPDITLLLDIPVDIALRRLKEKNRFENKEFLEKVRKGFLELAKEEENVVVIDASGEEEEVFKEILRALSGVLRV,soluble
7,MSPEKYLQDWQTSQTIAESISPLIGKLYRQKGIEVVLFGKTLINATTIDILKTHRVARRYTGSPLSLEHTMPIIQALCEMSISSCRVDVGQLATKYWNEHEDTAALNDFLQTALQGARDADSS,not soluble
8,MSFSGVKVSPECLEAFQELKLGKSLRYVVFKMNDTKTEIVVEKKSTDKDFDTFLGDLPEKDCRYAIYDFEFNLGEGVRNKIIFISWSPDVAPIKSKMVYSSSKDTLRRAFTGIGTDIQATDFSEVAYETVLEKVTRK,soluble
9,MGQRKYGGPPPGWDSTPPERGCEIFIGKLPRDLFEDELIPLCEKIGKIYEMRLMMDFNGNNRGYAFVTFSNKQEAKNAIKQLNNYEIRTGRLLGVCASVDNCRLFVGGIPKTKKREEILSEMKKVTEGVVDVIVYPSAADKTKNRGFAFVEYESHRAAAMARRRLLPGRIQLWGHPIAVDWAEPEVEVDEDTMSSVKILYVRNLMLSTSEEMIEKEFNSIKPGAVERVKKIRDYAFVHFSNREDAVEAMKALNGKVLDGSPIEVTLAKPVDKDSYVRYTRGTGGRNTMLQGEYTYPLSHVYDTTTTYLGAPVFYTPQAYAAIPSLHFPATKGHLSNRALIRTPSVRGNTS,soluble
10,MESFELEDLTLWLIRDADEAEMWIDRWAVSYPVVQMSEASANGSTEAWQSALQTAFERIQGRHIAVVAHGAGAAAFLAWLYRADILTQKKLAGIILVSPRPDIFPDDAEHTFQRVRCPCRAALVVSEHGGVPHGWAQKQADLWNARLLVSPHSGSLNGMLGGWQWGMKLMQEMLLA,not soluble
11,MGSDKIHHHHHHMAYFMLLMTTPIQATIQQSMALAKAHYENFPVASVLLPKDLRAPVGLVYAFARQADDFADEGELSPEERLALLDGFRSQLDQIKHGATPDTPLFQALQAMIQERDLPLEPFYDLLSAFSQDVVKARYANFGEVIDYCRRSANPVGRLMLHLYKQATPRNVALSDAICTSLQLINFLQDVDVDYRKNRIYLPLDELQKYNITEQQIAGQHSGGTWSLFMEFQVNRTRKLLQSGAPLGLALPGRIGLEMRMIIAGGERILKKLHHVRGDVFNQRPTLKPTDWAYMLYRAVRKK,not soluble
12,MSTDNLLQPKLIEATLGDYPVIQNMARFYVYDMSRYCGFISEEWTCPPDGLYESYDFKIYFTDPERKAFLIQIDNELAGFALLNKFGIQAVDWSMGEFFILAKFQGKGIGQSVAHQLWRTHPGEWEISVIPENIPALSFWRQAVMTYTLGRYKEQIKTVNYDIHQTQRIILSFNTQKQNKSCHSIPKKPITIDFVDNIPKSLEKKMTEDLIAYERTHGIDVNYKRFSIVLSEEGVTCGVINAFTAFAEIYIDDIWVDKAYRGKGYGKKLLQTLENHFKGQGFNNINLCTSAFQAPEFYRKCGYTAEFTRINQANPKLSKTFFVKFFDDENQTQGLF,soluble
13,MTISNSNLLKPFITGTELPPFKEDVFSKTEEQFKKSTYGKSLFISGNENLVNISAEKIDEIKNSKNFFSNIVNIIILLIKHPDKILPILHGCPVESIEVIKNAKRTGQWSYEMTDKNGQSIEVSYIFTDTIDDKSDGKLCLKICNSCNQNDSSTHEYKIDHQQLKNHIRQLEEWALLEKFYDNNAYYSKRTKQLEKKIADAGFITRKVKAENFNVKEFKDDIASMLCEQPPMRTHQISSSGYVSADKLHKLYKTNLEDAQRDLKTTPVDIDGVSLKSITREKIAEEIAKKTAEIIAKQNAKSIEEKNIEKNKKQTNSEDNFVLKFSPEEINEMLLDYSDEEQKKLRPFFTSDHIYCLFDAFSQGLHNVARNGSPRYAGLLRQIASKSAILQDFDQQLFWRTFTGGVLHRHISVKSEPEKTDVWRFSSQFDFPHINENGELSRTVLMFEGVAESNFKDIANHSSECFSYRCYAAPLDANAKK,soluble
14,AHHHHHHGSFTGKVLIPVKVLKKFENWNEGDMILLEDWKAKELWESGVVEIIDEADKVIGEIDRVLSEEKKNLPLTPIPEGLYEKAEFYIYYLEKYIQEKVDNIETIQTKVTKLANLKKKYKTLKEIRFKKILEAVRLRPNSMEILARLSPAEKRIYLEISKIRREWIGD,not soluble
15,ADKKRALEKEDMERLMKDIPKQLHSGNRELQRARGFFILMFLLRGMPFVDLAYLKKHDIDGNVLTYRRRKTGRMLTVTLLPEAVKLIKQHMNTDPAFPYLFSLISSKEGTEEAYKEYQLALRNFNYQLMILKQVLGLTTDLSSYTARHTWATMAYYCEVHPGVISEAMGHSSITVTETYLKPFKNKKIDEANVMVFSSFRKSFSVGNCLN,not soluble
16,MGTVEKSSNNDASVTDDIRSAEYYHGMVPRQDAEGFLKREGDFLVRKTEQMPGKVVLAMSVRVTDELCRHFMLNMDPTSNKFYFEHTHQESTISELINWHMTTKTPISAASGAKIRRPMERSPWLINHDSIVANKKLGEGAFGDVFIAELDQGGKQEVAVKTMRAEATREARLRFMKEARLMRKYQHKHVVKLIGVAIHEHPLMIVMEYCPNGSLLSHLKKNKVSLIEKLRFTTEAADGIAYLERSKCIHRDIAARNCLLSAKNELKISDFGMSDNKDEIKDETLEKVPIKWLAPETMQEKVYTHKTDIWTFGVLVWEIYSDGAEPYPGLTKIQTRAKIVVNDYRMKMPDGTHPTVADVVTGTCWQKNPEKRSTMDSIHKKLREFYESKK,not soluble
17,GPHVKSGLQIKKNAIIDDYKVTSQVLGLGINGKVLQIFNKRTQEKFALKMLQDCPKARREVELHWRASQCPHIVRIVDVYENLYAGRKCLLIVMECLDGGELFSRIQDRGDQAFTEREASEIMKSIGEAIQYLHSINIAHRDVKPENLLYTSKRPNAILKLTDFGFAKETTGEKYDKSCDMWSLGVIMYILLCGYPPFYSNHGLAISPGMKTRIRMGQYEFPNPEWSEVSEEVKMLIRNLLKTEPTQRMTITEFMNHPWIMQSTKVPQTPLHTSRVLKEDKERWEDVKEEMTSALATMR,soluble
18,MIPGMRATPTESFSFVYSCDLQTNVQVKVAEFEGIFRDVLNPVRRLNQLFAEITVYCNNQQIGYPVCTSFHTPPDSSQLARQKLIQKWNEWLTLPIRYSDLSRDAFLHITIWEHEDDEIVNNSTFSRRLVAQSKLSMFSKRGILKSGVIDVQMNVSTTPDPFVKQPETWKYSDAWGDEIDLLFKQVTRQSRGLVEDVPWLDPFASRRIEMIRAKYKYSSPDRHVFLVLEMAAIRLGPTFYKVVYYEDETKNMRVSTSVNGGVGIVSACTRYCVADPELLLESLAEVKHSAMTRRIRDVEDERHRQVKPNKQAKDRLETIVNLPSSQVLTREQRDLVWKFRHYLRQFPKALNKYLRSVNWVHPQEVKTALALMNDWELIEAEDALELLSSAFTHPAVRAYSVSRLLEAASPEQVLLYLPQLVQALKYEQGQQLPEEGNPVPVVSEEEGKIPSVATTPTEELEGRDMTVVTKKEARKAASGDLATFLIDYALASPKVSNYLYWHLKTEIESTKESKEEHSKMYQNIQDRLMEALVKRPDTRAQVDSLHQQQIFVEDLIILMNEAKARGGRLNESKSAEFRTMLSRAKHMLDLKGVHLPLDPSFRLSSVIPDTASFFKSEMMPAKISFKVLQPNGKADRNIPEEYTVIFKTGDDLRQDQLIQQMVRLIDIILKKGQLDLKLTPYLVLSTGVGQGFVQCIKSKPLRAIQEQYKAHKMDCIREAMKELRPGDGPFGIEPNVIDNYVRSLAGYSVIMYILGLGDRHLDNLLLCENGKLFHVDFGFILGRDPKPMPPPMKLTSEMVQVMGGVKSKQFLEFVQHVDSAYRILRRHSNVLLNLFSLMLDAGIPDIAAEPDKAIFKIEQRLRLDLSDEAATKHIFTQIESSLNAKMAMISDIIHAYKQNLM,not soluble
19,RERLLSEAKATLQNYVAIAMTAIKPLYDAAAPGDEAARANAIKLLSAVSYGKDGYLFGYDSQVVRIFRSTSPDGLGKSFVDARDANGVYINR,not soluble
20,SSSSSSVPAYLGDEDLTQETRALISSLPKEKGWLVSEIYEFQGLWHTQAILQGILICQKRFEAKDSDIILVTNPKSGTTWLKALVFALLNRHKFPVSSSGNHPLLVTNPHLLVPFLEGVYYESPDFDFSSLPSPRLMNTHISHLSLPESVKSSSCKIVYCCRNPKDMFVSLWHFGKKLAPEETADYPIEKAVEAFCEGKFIGGPFWDHILEYWYASRENPNKVLFVTYEELKKQTEVEMKRIAEFLECGFIEEEEVREIVKLCSFESLSNLEVNKEGKLPNGIETKTFFRKGEIGGWRDTLSESLAEEIDRTIEEKFKGSGLKFSS,soluble
21,METTQKDELSSFLSVLPPVDFCCVYGSTLHPNNQDKSKMVDYILGVSDPIKWHSANLKMNSDHYASWMVHLGGARLITNVADKVGVGVHFNPFVNWNDRKLKYGVVRMHDLVQDILDWKRFYLSGRLQKPVHMLVDNLDIEDVNSVNKRAAISAALLLLPSKFTEEDLYAKICSLSYMGDLRMFFAEDTNKVNKIVKGQFDLFQSMYKPFLEECETKNLLRFSSAEASHTKLVQDSSLSATRSLVSSLPASVRSQMGKSLGEKKFVSETGRVMGEVCISSREEAAKCMEKVMRRRVMVSSGRQAVSGFLAAGAINATMYLSQKMRKAWNSRA,soluble
